Measurements from patent US8822187B1, “Polypeptides, nucleic acid molecules, and methods for synthesis of triterpenes” (University of Kentucky Research Foundation, priority 2011, dated 2014).

Assay: Michaelis-Menten enzyme kinetics of the SSL-1 reaction (3H-FPP to PSPP)
Format: biochemical
Conditions: after acid phosphatase dephosphorylation
Procedure: FIG. 5 depicts Michaelis-Menten enzyme kinetics of the SSL-1 reaction. Enzyme assays (50 μl) were set up as described in the methods section with purified SSL-1 (0.2-1.0 μg), 0.1% triton X-100, ±2 mM NADPH, and the indicated concentration of ^3H-FPP. Assays were incubated for 15 min at 37° C. and stopped by addition of 50 μl 0.5 M EDTA. The reactions were then extracted 3× with 200 μl water saturated 1-butanol and pooled in a 4 ml glass screw cap vial. […] The standards were visualized with iodine vapors and the zones corresponding to FOH (rf=0.65) and PSOH (rf=0.45) were scraped and analyzed by scintillation spectroscopy. […] The data was analyzed using the SigmaPlot Enzyme Kinetics 1.3 software. […]
Typical enzyme assays were initiated by mixing aliquots of purified enzyme with 50 mM Mops, pH 7.3, 20 mM MgCl2, 2.5 mM 2-mercaptoethanol, 10 μM [1-^3H]-FPP (˜2×10^5 dpm total), and 2 mM NADPH in total reaction volume of 50 μl. […] The standards were visualized with iodine vapors and TLC zones corresponding to the standards were scrapped and analyzed by scintillation spectrometry. […] Extracts were resuspended in 50 μl hexane and an aliquot analyzed by GC-MS with a Varian CP-3800 GC coupled to a Varian Saturn 2200 MS/MS (Varian Medical Systems) using a Supelco SLB-5 ms fused silica capillary column (30 m×0.25 mm×0.25 μM film thickness, Supelco). […]

B1: Botryococcus braunii race B squalene synthase-like 1 (SSL-1), wild type, hexa-histidine tagged, SEQ ID NO: 2 (Botryococcus braunii) (protein)
chain: MTMHQDHGVMKDLVKHPNEFPYLLQLAATTYGSPAAPIPKEPDRAFCYNTLHTVSKGFPRFVMRLPQELQDPICIFYLLLRALDTVEDDMNLKSETKISLLRVFHEHCSDRNWSMKSDYGIYADLMERFPLVVSVLEKLPPATQQTFRENVKYMGNGMADFIDKQILTVDEYDLYCHYVAGSCGIAVTKVIVQFNLATPEADSYDFSNSLGLLLQKANIITDYNEDINEEPRPRMFWPQEIWGKYAEKLADFNEPENIDTAVKCLNHMVTDAMRHIEPSLKGMVYFTDKTVFRALALLLVTAFGHLSTLYNNPNVFKEKVRQRKGRIARLVMSSRNVPGLFRTCLKLANNFESRCKQETANDPTVAMTIKRLQSIQATCRDGLAKYDTPSGLKSFCAAPTPTK
- input radioactivity recovered as FOH and PSOH: greater than 95%
